Ends that are not written are not given here.

This is an account of results in US5200320A, “Method for identifying useful polypeptide vaccines” (National Jewish Center for Immunology and Respiratory …, priority 1987, dated 1993).

The target of one test is T1, IA^d (Mus musculus, UniProt P01921+P04228).
T1 sequence (P04228 24-256): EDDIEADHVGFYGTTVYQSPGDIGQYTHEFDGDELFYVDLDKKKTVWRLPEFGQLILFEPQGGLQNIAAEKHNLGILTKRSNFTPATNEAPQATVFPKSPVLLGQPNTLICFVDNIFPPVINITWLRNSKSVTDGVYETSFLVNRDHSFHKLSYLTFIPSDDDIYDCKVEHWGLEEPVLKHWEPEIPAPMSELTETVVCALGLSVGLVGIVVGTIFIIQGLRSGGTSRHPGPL
T1 sequence (P01921 28-265): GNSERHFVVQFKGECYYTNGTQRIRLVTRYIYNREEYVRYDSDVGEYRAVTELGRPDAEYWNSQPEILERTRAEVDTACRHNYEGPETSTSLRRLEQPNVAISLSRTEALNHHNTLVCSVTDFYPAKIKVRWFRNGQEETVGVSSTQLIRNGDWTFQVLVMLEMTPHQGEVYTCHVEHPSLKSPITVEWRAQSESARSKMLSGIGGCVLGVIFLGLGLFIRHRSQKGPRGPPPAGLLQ
The test can be described thus: Inhibition of binding of 125I-radiolabelled Ova 323-339 to purified IA^d (gel filtration competition assay). The conditions noted are these: Table 7, good binders; concentration of the indicated polypeptide. The text has this:
The following examples will illustrate the method of the present invention. First, a critical binding segment of a first polypeptide that binds to a first type of MHC, was ascertained. […] This was accomplished by the method described in Sette, et al, Nature, Vol. […] No. 6129, pp. 395-399, Jul. 30, 1987, the entirety of which is incorporated herein by reference. […] For convenience, Table I of that paper illustrating the foregoing procedure, is attached as Table 2.
The effect which the substitutions indicated by an "X" in Table III, had on the binding strength of the critical binding segment listed at the top of attached Table 4, was quantitatively calculated, and a numerical designation assigned to the substituting amino acid based upon the degree of that effect. The foregoing assigned numerical designations for each "X" position indicated in Table 3, is listed at corresponding positions in Table 4. The quantitative evaluations of the binding strength were made using a competition assay as described in Sette, et al, supra, and the numerals assigned according to the decrease in the binding activity as follows:
The value of "binding" listed in Tables 6 and 7, is in micromolar concentration of the indicated polypeptide. The assay used was the same as that in Sette et al, supra, for quatitative estimation of Ia peptide interaction.
In particular, as pointed out in Sette et al., supra, T-cell recognition is much less permissive than MHC recognition. […] However, as one would expect, when the binding strength of a polypeptide to an MHC types of an individual animal is poor, little or no immunogenic response would result. However, if a polypeptide is a good binder, as ascertained by the above method, then immunogenicity would be expected to be a possibility. […] Binding to a class II MHC type IA^d and IE^d (d strain of mouse) was evaluated using the same assay technique as used to evaluate the binding for the polypeptides in Tables 6 and 7 above.
Background: SEC sorts molecules by how far they enter the pores of the column.
Substance AHRVQLGPRSLQVLLIP [JF 39] came in with a concentration for half-maximal inhibition (IC50) of 25 µM. For APYTSTLLAPELSETP [HSVD 245-260], the “BINDING (M)” value is listed as 22/2. For the substance FISEAIIHVLHSR [Myo 106-118], the IC50 stood at 20 µM. Substance HNTNGVTAACSHE [Ha 130-142] displayed an IC50 of 9 µM. Take SAESLKISQAV [Ova Site II]: the IC50 was found to be 5 µM.

The next test addresses T1, IA^d.
Assay: not given
Conditions: amount of unlabelled Ova 323-339 divided by amount of truncated peptide needed to inhibit binding of 125I Ova 323-339 to IA^d by 50%; averages of 2-4 experiments; cited from earlier work.
In the case of “Ova peptide 323-331: C-terminal truncation of Ova 323-339, ending in H (KISQAVHAA; UniProt P01012 323-331, looked up, fragment)”, the “Relative I-A^d binding capacity” value is below 0.005. For “Ova peptide 323-332: C-terminal truncation of Ova 323-339, ending in A (KISQAVHAAH; UniProt P01012 323-332, looked up, fragment)”, the “Relative I-A^d binding capacity” value is 0.2. Turning to “Ova peptide 323-333: C-terminal truncation of Ova 323-339, ending in E (KISQAVHAAHA; UniProt P01012 323-333, looked up, fragment)”, the “Relative I-A^d binding capacity” value is given as 0.6. In the case of “Ova peptide 323-335: C-terminal truncation of Ova 323-339, ending in N (KISQAVHAAHAEI; UniProt P01012 323-335, looked up, fragment)”, the “Relative I-A^d binding capacity” value is listed as 1.0. Regarding “Ova peptide 323-336: C-terminal truncation of Ova 323-339, ending in E (KISQAVHAAHAEIN; UniProt P01012 323-336, looked up, fragment)”, the “Relative I-A^d binding capacity” value was 1.1.

In the case of “Ova peptide 325-339: N-terminal truncation of Ova 323-339, starting with Q (SQAVHAAHAEINEAG; UniProt P01012 325-339, looked up, fragment)”, the “Relative I-A^d binding capacity” value was 1.1. For the substance “Ova peptide 326-339: N-terminal truncation of Ova 323-339, starting with A (QAVHAAHAEINEAG; UniProt P01012 326-339, looked up, fragment)”, the “Relative I-A^d binding capacity” value is 0.5. As to “Ova peptide 327-339: N-terminal truncation of Ova 323-339, starting with V (AVHAAHAEINEAG; UniProt P01012 327-339, looked up, fragment)”, the “Relative I-A^d binding capacity” value is recorded as 0.3. Consider “Ova peptide 328-339: N-terminal truncation of Ova 323-339, starting with H (VHAAHAEINEAG; UniProt P01012 328-339, looked up, fragment)”, for which the “Relative I-A^d binding capacity” value is 0.014.

In the case of “Ova peptide 329-339: N-terminal truncation of Ova 323-339, starting with A (HAAHAEINEAG; UniProt P01012 329-339, looked up, fragment)”, the “Relative I-A^d binding capacity” value is on record as below 0.005.

Broadly, the IC50 is the point on the concentration scale where inhibition reaches its midpoint. Read a high IC50 as weaker potency.
